The target of the data set is DNMT1 (UniProt P26358 1-1616). Kind of data set: SPR.
DNMT1, sequence (P26358 whole entry): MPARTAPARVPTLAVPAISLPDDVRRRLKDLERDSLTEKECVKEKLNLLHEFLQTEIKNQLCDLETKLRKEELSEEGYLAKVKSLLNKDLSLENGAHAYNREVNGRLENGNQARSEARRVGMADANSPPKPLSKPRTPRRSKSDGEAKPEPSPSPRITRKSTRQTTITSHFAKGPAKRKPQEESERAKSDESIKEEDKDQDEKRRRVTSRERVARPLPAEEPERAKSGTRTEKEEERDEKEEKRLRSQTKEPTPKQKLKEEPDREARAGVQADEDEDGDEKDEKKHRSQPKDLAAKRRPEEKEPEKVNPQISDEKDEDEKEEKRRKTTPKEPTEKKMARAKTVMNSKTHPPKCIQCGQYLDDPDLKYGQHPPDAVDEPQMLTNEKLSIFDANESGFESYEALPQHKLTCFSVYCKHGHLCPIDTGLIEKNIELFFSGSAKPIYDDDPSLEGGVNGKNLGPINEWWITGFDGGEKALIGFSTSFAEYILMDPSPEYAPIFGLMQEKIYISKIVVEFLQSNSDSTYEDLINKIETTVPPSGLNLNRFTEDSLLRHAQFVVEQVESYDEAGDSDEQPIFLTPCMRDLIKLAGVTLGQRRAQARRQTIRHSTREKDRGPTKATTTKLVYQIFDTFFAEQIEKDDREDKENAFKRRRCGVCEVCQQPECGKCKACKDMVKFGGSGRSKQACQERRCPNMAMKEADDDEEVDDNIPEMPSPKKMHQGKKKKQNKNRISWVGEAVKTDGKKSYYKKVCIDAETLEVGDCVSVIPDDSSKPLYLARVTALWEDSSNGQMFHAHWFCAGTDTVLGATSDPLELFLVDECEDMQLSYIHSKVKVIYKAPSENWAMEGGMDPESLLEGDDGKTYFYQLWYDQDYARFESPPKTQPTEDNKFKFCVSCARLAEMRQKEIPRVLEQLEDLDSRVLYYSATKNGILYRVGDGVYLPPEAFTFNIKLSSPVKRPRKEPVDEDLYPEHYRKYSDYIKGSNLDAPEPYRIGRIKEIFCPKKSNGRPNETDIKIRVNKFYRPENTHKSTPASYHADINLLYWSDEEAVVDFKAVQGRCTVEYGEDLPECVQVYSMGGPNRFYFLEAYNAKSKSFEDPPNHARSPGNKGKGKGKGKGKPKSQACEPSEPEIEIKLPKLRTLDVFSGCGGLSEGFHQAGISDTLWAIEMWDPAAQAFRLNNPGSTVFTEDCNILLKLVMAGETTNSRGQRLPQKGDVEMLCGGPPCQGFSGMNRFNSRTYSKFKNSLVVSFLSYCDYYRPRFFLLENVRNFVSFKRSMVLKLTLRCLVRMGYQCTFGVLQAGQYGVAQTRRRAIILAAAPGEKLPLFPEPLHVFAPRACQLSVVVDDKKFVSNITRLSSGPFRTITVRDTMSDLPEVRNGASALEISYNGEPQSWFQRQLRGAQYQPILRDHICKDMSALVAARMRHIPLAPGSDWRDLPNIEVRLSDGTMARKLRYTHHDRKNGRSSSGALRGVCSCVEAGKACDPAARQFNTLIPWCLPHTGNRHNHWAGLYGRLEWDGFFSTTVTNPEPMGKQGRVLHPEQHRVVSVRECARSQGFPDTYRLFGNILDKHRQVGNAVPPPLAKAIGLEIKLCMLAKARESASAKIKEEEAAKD

B1: hemimethylated 30-bp oligo (D1subHMF/D1subUMF) (dsDNA)
DNA 1: GAAGCTGGGACTTCCGGCAGGAGAGTGCAA
DNA 2: TTGCACTCTCCTGCCGGAAGTCCCAGCTTC
modifications: 5-methylcytosine at position 15 of strand 1
Turning to B1, the Kd was 1070 nM.

For the origin of these results see paper PMC3315326.
